The target of series [1] is T1, CtIP WT (human, UniProt Q99708 1-897). Nature of the series: fluorescence anisotropy; independent repeat; Anisotropy: 20 mM Tris-Cl pH 8.0, 20 mM NaCl, 1 mM DTT, 5 nM HEX fork; EMSA: 20 mM Tris-Cl pH 8.0, 100 mM NaCl, 1 mM DTT, 0.1 mg/ml BSA, 5% glycerol, 2.5 nM Cy5 fork, room temperature; C-Trap reaction: 10 mM Tris-Cl pH 7.6, 20 mM NaCl, 1 mM DTT, 0.1 mg/ml BSA. Conditions: protein: recombinant; tags: StrepII (cleavable); chain copies: 4; label: 5'-HEX on strand 1; fork: 25 bp duplex, 20 nt 3' and 5' dT arms. (In general: In fluorescence polarisation assays a small probe gives low polarisation when free and higher when bound to something large.)
T1 sequence (Q99708 whole entry): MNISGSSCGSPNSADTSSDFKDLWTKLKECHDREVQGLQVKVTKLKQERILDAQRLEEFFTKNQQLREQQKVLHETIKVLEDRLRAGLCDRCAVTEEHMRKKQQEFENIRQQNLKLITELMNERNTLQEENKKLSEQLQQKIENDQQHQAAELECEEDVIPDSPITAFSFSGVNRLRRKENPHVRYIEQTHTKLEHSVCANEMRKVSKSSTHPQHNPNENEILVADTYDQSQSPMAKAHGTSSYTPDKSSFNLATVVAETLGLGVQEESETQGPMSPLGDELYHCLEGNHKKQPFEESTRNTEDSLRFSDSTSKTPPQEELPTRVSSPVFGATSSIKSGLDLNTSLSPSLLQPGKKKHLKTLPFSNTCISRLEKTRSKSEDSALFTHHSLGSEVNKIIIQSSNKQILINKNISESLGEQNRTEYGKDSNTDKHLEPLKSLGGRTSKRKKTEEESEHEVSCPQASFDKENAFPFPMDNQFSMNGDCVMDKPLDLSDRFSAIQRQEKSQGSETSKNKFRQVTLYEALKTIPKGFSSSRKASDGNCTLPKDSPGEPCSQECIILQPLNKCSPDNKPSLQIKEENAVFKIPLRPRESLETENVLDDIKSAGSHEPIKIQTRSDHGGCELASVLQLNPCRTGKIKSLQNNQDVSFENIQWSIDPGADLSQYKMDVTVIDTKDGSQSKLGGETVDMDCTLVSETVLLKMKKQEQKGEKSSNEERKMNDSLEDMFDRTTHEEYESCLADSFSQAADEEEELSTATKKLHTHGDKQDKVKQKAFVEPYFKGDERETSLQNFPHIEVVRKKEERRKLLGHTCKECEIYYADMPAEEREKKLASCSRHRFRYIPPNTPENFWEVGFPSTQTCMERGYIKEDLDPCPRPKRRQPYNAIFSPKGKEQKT

The target in series [2] is MBP-CtIP-800-843 (human, UniProt Q99708 800-843). Nature of the series: fluorescence-based binding assay; label not certain; weak binding equation; Anisotropy: 20 mM Tris-Cl pH 8.0, 20 mM NaCl, 1 mM DTT, 5 nM HEX fork; EMSA: 20 mM Tris-Cl pH 8.0, 100 mM NaCl, 1 mM DTT, 0.1 mg/ml BSA, 5% glycerol, 2.5 nM Cy5 fork, room temperature; C-Trap reaction: 10 mM Tris-Cl pH 7.6, 20 mM NaCl, 1 mM DTT, 0.1 mg/ml BSA. To be noted: protein: recombinant; tags: MBP; label: 5'-HEX on strand 1; fork: 25 bp duplex, 20 nt 3' and 5' dT arms. (In general: In EMSA bound probe runs differently from free probe, usually more slowly.)
MBP-CtIP-800-843, sequence (Q99708 800-843): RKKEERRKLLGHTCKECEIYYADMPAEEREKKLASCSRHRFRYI

Series [3] has as its target CtIP ΔN541a (human, UniProt Q99708 542-897). Briefly: fluorescence anisotropy; Anisotropy: 20 mM Tris-Cl pH 8.0, 20 mM NaCl, 1 mM DTT, 5 nM HEX fork; EMSA: 20 mM Tris-Cl pH 8.0, 100 mM NaCl, 1 mM DTT, 0.1 mg/ml BSA, 5% glycerol, 2.5 nM Cy5 fork, room temperature; C-Trap reaction: 10 mM Tris-Cl pH 7.6, 20 mM NaCl, 1 mM DTT, 0.1 mg/ml BSA. To be noted: protein: recombinant; tags: StrepII; chain copies: 2; label: 5'-HEX on strand 1; fork: 25 bp duplex, 20 nt 3' and 5' dT arms.

Series [4] concerns the target CtIP ΔN500b (human, UniProt Q99708 501-897). Described as above. Conditions: protein: recombinant; tags: StrepII; label: 5'-HEX on strand 1; fork: 25 bp duplex, 20 nt 3' and 5' dT arms.
In series [5] the target is CtIP ΔN500a (human, UniProt Q99708 501-897). The series is described as above. Conditions: protein: recombinant; tags: StrepII; chain copies: 2; label: 5'-HEX on strand 1; fork: 25 bp duplex, 20 nt 3' and 5' dT arms.
CtIP ΔN500a, sequence (Q99708 501-897, stated change not applied): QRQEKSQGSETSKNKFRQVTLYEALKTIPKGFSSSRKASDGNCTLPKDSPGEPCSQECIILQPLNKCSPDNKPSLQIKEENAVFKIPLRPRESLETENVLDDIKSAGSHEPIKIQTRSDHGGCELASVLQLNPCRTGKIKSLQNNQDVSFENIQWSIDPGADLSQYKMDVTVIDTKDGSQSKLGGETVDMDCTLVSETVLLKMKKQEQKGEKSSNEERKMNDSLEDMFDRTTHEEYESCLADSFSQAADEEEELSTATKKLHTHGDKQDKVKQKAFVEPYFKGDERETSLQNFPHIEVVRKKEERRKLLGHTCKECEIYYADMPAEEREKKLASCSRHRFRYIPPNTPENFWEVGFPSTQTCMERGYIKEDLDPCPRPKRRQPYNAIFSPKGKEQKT
In series [6] the target is CtIP R100W (human, UniProt Q99708 1-897, R100W). The series is described as above. Conditions: protein: recombinant; tags: StrepII; chain copies: 4; label: 5'-HEX on strand 1; fork: 25 bp duplex, 20 nt 3' and 5' dT arms.
CtIP R100W, sequence (Q99708 whole entry R100W): as the sequence (Q99708 whole entry) above, with R100W counted along it
Series [7] deals with T1, CtIP WT. The series is described as above. Conditions: protein: recombinant; tags: StrepII (cleavable); chain copies: 4; label: 5'-HEX on strand 1; fork: 25 bp duplex, 20 nt 3' and 5' dT arms.
The target in series [8] is CtIP ΔN541b (human, UniProt Q99708 542-897). Described as above. Conditions: protein: recombinant; tags: StrepII; label: 5'-HEX on strand 1; fork: 25 bp duplex, 20 nt 3' and 5' dT arms.
CtIP ΔN541b, sequence (Q99708 542-897, stated change not applied): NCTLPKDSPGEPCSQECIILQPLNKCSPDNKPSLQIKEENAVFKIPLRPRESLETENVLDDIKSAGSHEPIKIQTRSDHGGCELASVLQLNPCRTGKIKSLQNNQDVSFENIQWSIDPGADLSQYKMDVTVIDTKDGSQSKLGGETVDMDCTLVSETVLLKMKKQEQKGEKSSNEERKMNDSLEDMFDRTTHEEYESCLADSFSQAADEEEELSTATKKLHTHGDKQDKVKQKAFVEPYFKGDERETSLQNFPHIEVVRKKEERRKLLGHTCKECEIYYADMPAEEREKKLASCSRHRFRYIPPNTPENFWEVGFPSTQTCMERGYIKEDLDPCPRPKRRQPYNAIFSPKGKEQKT
Series [9] has as its target T2, CtIP ΔC608 (human, UniProt Q99708 1-608). Briefly: fluorescence anisotropy; no binding at 400 nM; Anisotropy: 20 mM Tris-Cl pH 8.0, 20 mM NaCl, 1 mM DTT, 5 nM HEX fork; EMSA: 20 mM Tris-Cl pH 8.0, 100 mM NaCl, 1 mM DTT, 0.1 mg/ml BSA, 5% glycerol, 2.5 nM Cy5 fork, room temperature; C-Trap reaction: 10 mM Tris-Cl pH 7.6, 20 mM NaCl, 1 mM DTT, 0.1 mg/ml BSA. Conditions: protein: recombinant; tags: StrepII; chain copies: 4; label: 5'-HEX on strand 1; fork: 25 bp duplex, 20 nt 3' and 5' dT arms.

For series [10], the target named is T2, CtIP ΔC608. Briefly: EMSA; undetectable at highest concentration; Anisotropy: 20 mM Tris-Cl pH 8.0, 20 mM NaCl, 1 mM DTT, 5 nM HEX fork; EMSA: 20 mM Tris-Cl pH 8.0, 100 mM NaCl, 1 mM DTT, 0.1 mg/ml BSA, 5% glycerol, 2.5 nM Cy5 fork, room temperature; C-Trap reaction: 10 mM Tris-Cl pH 7.6, 20 mM NaCl, 1 mM DTT, 0.1 mg/ml BSA. Conditions: protein: recombinant; tags: StrepII; chain copies: 4; label: 5'-Cy5 on strand 1; fork: 25 bp duplex, 20 nt 3' and 5' dT arms.

In series [11] the target is CtIP ΔN790 (human, UniProt Q99708 791-897). Briefly: fluorescence quenching; Results say Cy5-fork; Methods imply HEX (550 nm); Anisotropy: 20 mM Tris-Cl pH 8.0, 20 mM NaCl, 1 mM DTT, 5 nM HEX fork; EMSA: 20 mM Tris-Cl pH 8.0, 100 mM NaCl, 1 mM DTT, 0.1 mg/ml BSA, 5% glycerol, 2.5 nM Cy5 fork, room temperature; C-Trap reaction: 10 mM Tris-Cl pH 7.6, 20 mM NaCl, 1 mM DTT, 0.1 mg/ml BSA. Conditions: protein: recombinant; tags: StrepII; label: 5'-Cy5 on strand 1; fork: 25 bp duplex, 20 nt 3' and 5' dT arms.
CtIP ΔN790, sequence (Q99708 791-897, stated change not applied): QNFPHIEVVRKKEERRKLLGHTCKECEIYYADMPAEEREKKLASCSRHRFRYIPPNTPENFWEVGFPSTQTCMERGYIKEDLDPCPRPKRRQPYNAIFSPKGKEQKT

T2 sequence (Q99708 1-608, stated change not applied): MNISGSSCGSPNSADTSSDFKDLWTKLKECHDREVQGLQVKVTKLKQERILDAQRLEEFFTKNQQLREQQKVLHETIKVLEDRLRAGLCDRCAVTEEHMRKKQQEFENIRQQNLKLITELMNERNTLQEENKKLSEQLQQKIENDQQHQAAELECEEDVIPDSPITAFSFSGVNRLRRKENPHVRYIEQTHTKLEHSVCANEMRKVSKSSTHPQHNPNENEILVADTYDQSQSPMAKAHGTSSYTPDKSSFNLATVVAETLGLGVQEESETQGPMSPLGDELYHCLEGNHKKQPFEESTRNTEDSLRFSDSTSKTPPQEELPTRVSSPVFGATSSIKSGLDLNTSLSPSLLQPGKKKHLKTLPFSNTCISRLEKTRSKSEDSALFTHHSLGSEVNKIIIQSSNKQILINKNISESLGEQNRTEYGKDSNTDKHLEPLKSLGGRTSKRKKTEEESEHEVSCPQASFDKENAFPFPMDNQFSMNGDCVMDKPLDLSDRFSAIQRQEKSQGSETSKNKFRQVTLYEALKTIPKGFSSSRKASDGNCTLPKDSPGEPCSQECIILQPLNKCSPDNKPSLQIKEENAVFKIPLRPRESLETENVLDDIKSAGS
CtIP ΔN500b, sequence (Q99708 501-897, stated change not applied): as the sequence (Q99708 501-897, stated change not applied) above
CtIP ΔN541a, sequence (Q99708 542-897, stated change not applied): as the sequence (Q99708 542-897, stated change not applied) above

B1: HEX fork (mixed)
DNA 1: GCTTGCTAGGACGGATCGCTCGAGGTTTTTTTTTTTTTTTTTTTT
DNA 2: TTTTTTTTTTTTTTTTTTTTCCTCGAGCGATCCGTCCTAGCAAGC
Turning to B1, the equilibrium dissociation constant (Kd) in series [1] was determined as 37 nM; in series [2] it was 520 nM; in series [3], 210 nM; in series [4], 33 nM; in [5], 45 nM; in [6], 115 nM. Besides, the Kd in series [7] came to 66 nM; in series [8] it was 960 nM. In series [9], the binding result is “no binding”.

B2: Cy5 fork (mixed)
DNA 1: B1 DNA 1
DNA 2: B1 DNA 2
On to B2, for which the binding result in series [10] is “no binding”. Moreover, the Kd in [11] came out at 270 nM.

Broadly, the Kd is the concentration at which binding is half-saturated.

For the origin of these results see publication PMC11317151, “DNA binding and bridging by human CtIP in the healthy and diseased states”.
